Experimental data from patent US20160289342A1 (Eli Lilly, published 2016).

Assays:
FcγIIIa (V158) receptor = FcγIIIa (V158) receptor (UniProt P08637 17-254); assay: cell-based or functional assay
FcγIIIa (F158) receptor = FcγIIIa (F158) receptor (UniProt P08637 17-254); assay: cell-based or functional assay
murine BAFF = murine BAFF (murine, UniProt Q9WU72 127-309, limits assumed); assay: not described
[1] = biological target: T1, recombinant human soluble BAFF (human, UniProt Q9Y275 134-285); assay: MSD-SET with biotinylated recombinant human soluble BAFF, N=3
T1 construct: domain: soluble BAFF; also called human BAFF; soluble human BAFF trimer
Description: Binding affinity and stoichiometry of the exemplified bispecific antibody to human BAFF is measured by MSD-SET using purified recombinant human soluble BAFF (expressed from HEK293 cells). Purified recombinant BAFF is biotinylated using EZ-Link Sulfo-NHS-LC biotin reagent (Thermo Scientific, p/n. 21335).
Multi-array 96-well assay plates (Meso Scale Discovery, p/n. L15XA-3) are coated with 3.5 μg/mL of bispecific antibody and incubated overnight at 4° C. Following incubation, the plates are washed three times with PBS, then blocked using 3% Blocker A solution for 45 minutes at room temperature. The plates are then washed again with PBS. Exemplified bispecific antibody, starting at a concentration of 224 pM, is serially diluted (using 2-fold dilutions) in a V-bottom 96-well plate creating 12 different bispecific antibody concentrations. 7 pM of biotinylated recombinant BAFF is mixed with each dilution of exemplified bispecific antibody and then incubated at 37° C. for 36-48 hours (to reach equilibrium). Equilibrated samples are added to a well of the MSD multi-array 96-well assay plate previously coated with exemplified bispecific antibody; samples are mixed for 2.5 minutes, and then washed three times with PBS. […] 1× Read Buffer T (Meso Scale Discovery, p/n. R92TC-1) is added to each well and plates are read on a MSDSI6000 plate reader (Meso Scale Discovery, Rockville Md.). […]

FcγIIIa (F158) receptor, sequence (P08637 17-254): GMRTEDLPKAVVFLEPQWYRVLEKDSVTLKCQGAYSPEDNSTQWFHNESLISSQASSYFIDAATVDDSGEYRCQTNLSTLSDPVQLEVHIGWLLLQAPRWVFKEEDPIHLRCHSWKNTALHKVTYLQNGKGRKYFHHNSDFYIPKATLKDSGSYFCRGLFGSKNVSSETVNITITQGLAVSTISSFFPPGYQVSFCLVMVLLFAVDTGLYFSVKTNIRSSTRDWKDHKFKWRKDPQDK
FcγIIIa (V158) receptor, sequence (P08637 17-254 F176V): as the sequence (P08637 17-254) above, with F160V counted along it
T1 sequence (Q9Y275 134-285 limits assumed): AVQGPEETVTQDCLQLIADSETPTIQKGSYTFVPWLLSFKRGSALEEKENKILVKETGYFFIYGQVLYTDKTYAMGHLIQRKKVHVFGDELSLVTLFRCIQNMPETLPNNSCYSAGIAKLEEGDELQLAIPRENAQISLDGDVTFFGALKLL
murine BAFF, sequence (Q9WU72 127-309 limits assumed): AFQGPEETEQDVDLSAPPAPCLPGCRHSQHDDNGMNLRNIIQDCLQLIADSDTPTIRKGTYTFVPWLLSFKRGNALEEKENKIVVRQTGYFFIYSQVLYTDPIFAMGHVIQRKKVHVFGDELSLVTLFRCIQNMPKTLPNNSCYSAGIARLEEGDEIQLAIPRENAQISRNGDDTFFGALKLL

B1: exemplified bispecific antibody of Table 1 (anti-CD20 IgG1 mAb with anti-BAFF scFv linked at the N-terminus of each heavy chain) (bispecific antibody)
heavy: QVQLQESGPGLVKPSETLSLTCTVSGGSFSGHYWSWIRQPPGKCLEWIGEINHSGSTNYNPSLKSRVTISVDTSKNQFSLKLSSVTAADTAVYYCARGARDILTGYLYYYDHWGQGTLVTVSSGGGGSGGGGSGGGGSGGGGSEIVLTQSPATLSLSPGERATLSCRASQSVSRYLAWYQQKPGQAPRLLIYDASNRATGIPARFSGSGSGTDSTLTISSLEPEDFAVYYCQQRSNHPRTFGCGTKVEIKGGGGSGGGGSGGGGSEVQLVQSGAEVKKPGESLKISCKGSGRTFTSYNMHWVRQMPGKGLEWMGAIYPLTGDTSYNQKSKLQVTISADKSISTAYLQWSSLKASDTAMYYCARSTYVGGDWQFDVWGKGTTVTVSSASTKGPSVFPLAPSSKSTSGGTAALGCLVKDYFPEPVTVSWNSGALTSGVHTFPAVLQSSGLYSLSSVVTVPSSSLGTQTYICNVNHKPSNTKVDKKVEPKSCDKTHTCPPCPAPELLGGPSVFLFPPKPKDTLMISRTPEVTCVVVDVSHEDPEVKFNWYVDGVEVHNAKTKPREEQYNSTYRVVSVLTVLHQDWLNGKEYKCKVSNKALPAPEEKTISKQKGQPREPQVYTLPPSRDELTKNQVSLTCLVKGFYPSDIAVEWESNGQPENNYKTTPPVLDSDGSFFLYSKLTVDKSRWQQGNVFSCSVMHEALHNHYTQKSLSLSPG
light: EIVLTQSPGTLSLSPGERATLSCRASSSVPYIHWYQQKPGQAPRLLIYATSALASGIPDRFSGSGSGTDFTLTISRLEPEDFAVYYCQQWLSHPPTFGQGTKLEIKRTVAAPSVFIFPPSDEQLKSGTASVVCLLNNFYPREAKVQWKVDNALQSGNSQESVTEQDSKDSTYSLSSTLTLSKADYEKHKVYACEVTHQGLSSPVTKSFNRGEC
modifications: glycosylated at asparagine residue 566 of SEQ ID NO:1
notes: also called Exemplified Bispecific Ab; exemplified antibody
EC50 of NFAT-luciferase reporter signal (ADCC), WIL2-S + Jurkat (V158) (FcγIIIa (V158) receptor): 4.61 pM | EC50 of NFAT-luciferase reporter signal (ADCC), WIL2-S + Jurkat (F158) (FcγIIIa (F158) receptor): 31.4 pM | fold reduction in binding as compared to human BAFF (murine BAFF): ~250 fold | Kd [1]: 0.3 pM
